Consider one molecule from patent US20150246949A1, “Desmoglein 2 (DSG2) Binding Proteins and Uses Therefor” (UNIVERSITY OF WASHINGTON THROUGH ITS CENTER FOR …, priority 2012, published 2015).

In this assay the test system is Ad3-GFP virus. The experiment in a line: Competition of Ad3-GFP virus infection on HeLa cells. It counts as cell-based, adenovirus serotype 3 (Ad3). Particulars: HeLa cells pre-incubated with knob, 100 pfu/cell Ad3-GFP, GFP at 18 hours. As for the experimental part:
FIG. 3. Competition of Ad3 virus by dimerized Ad3 knob mutants. A) Relative attachment of ^3H-labeled Ad3 virus in the presence of dimeric fiber knob mutants. 1.8×10^5 HeLa cells were incubated with Ad3 knob mutants at a concentration of 2.5 and 100 μg/ml on ice for 1 hour. Then 400 pfu/cell of ^3H-Ad3 virus was added on ice for another hour. Unbound virus particles were washed away. Attachment of virus particles incubated with PBS was taken as 100%. N=3. B) Competition of Ad3-GFP virus infection on HeLa cells. 1.5×10^5 HeLa cells were seeded into 24 well plates. Cells were incubated with the Ad3 knob mutants at increasing concentrations for one hour at room temperature. 100 pfu/cell of Ad3-GFP virus were then added and GFP expression was analyzed 18 hours later by flow cytometry. Left panel: percentage of GFP positive cells. Right panel: mean fluorescence intensity. N=3. The standard deviation was less than 10%. C) Relative attachment of ^3H-labeled Ad3 virus in the presence of dimeric fiber knob mutants with multiple mutations. The study was performed as described in […]) The standard deviation was less than 10%. D) Competition of Ad3-GFP virus infection on HeLa cells. The study was performed as described in C) The standard deviation was less than 10%.
FIG. 9. Analysis of dimeric Ad3 fiber knob mutants with increased affinity to DSG2. A) Competition of Ad3-GFP virus infection on HeLa cells with dimeric affinity-enhanced mutant Y250F and JO-1 (dimeric wt Ad3 fiber knob). The experimental setting is as described for FIG. 3C. left panel: percentage of GFP positive cells. Right panel: mean fluorescence intensity. N=3. The standard deviation was less than 10%. […] 100 pfu/cell of Ad3GFP virus were then added and GFP expression was analyzed 18 hours later. […]
Competition studies were performed on HeLa cells, which express DSG2 (42). […] Transduction was measured based on GFP expression (FIG. 3B). […] Dimeric Ad3 knob mutants with combined mutations were also analyzed for their ability to compete with Ad3 virus for attachment (FIG. 3C) and infection (FIG. 3D).

B1: D261N (protein)
chain: MKVSALKEKVSALKEKVSALKEKVSALKEKVSALKEGSGGGSGGGSGGGSNSIALKNNTLWTGPKPEANCIIEYGKQNPDSKLTLILVKNGGIVNGYVTLMGASDYVNTLFKNKNVSINVELYFDATGHILPDSSSLKTDLELKYKQTADFSARGFMPSTTAYPFVLPNAGTHNENYIFGQCYYKASNGALFPLEVTVMLNKRLPDSRTSYVMTFLWSLNAGLAPETTQATLITSPFTFSYIREDD
For B1, the “Competition of Ad3-GFP infection based on GFP expression” value is “least reduced”.
